The values that follow come from patent US20060183125A1.

Test [1] deals with murine TREM-1-Ligand (mouse). Briefly: flow cytometry, peritoneal cells of a representative control mouse.
Test [2] concerns the target murine TREM-1-Ligand (mouse). The test can be described thus: flow cytometry, peritoneal cells of a representative septic (CLP) mouse.
The target in test [3] is murine TREM-1-Ligand (mouse). The test can be described thus: flow cytometry, high Ly-6G peritoneal cell subset, septic (CLP) mouse.
The target in test [4] is murine TREM-1-Ligand (mouse). The test can be described thus: flow cytometry, tetramer staining of blood cells of septic mice 6 hours after CLP induction.
Test [5] addresses murine TREM-1-Ligand (mouse). The test can be described thus: flow cytometry, low Ly-6G peritoneal cell subset, septic (CLP) mouse.
The target in test [6] is murine TREM-1-Ligand (mouse). Briefly: flow cytometry, low Ly-6G peritoneal cell subset, control mouse.
Test [7] has as its target human TREM-1-Ligand (human). Briefly: flow cytometry on peripheral neutrophils of a sepsis patient, 1 µg huTREM-1/IgM.
Test [8] deals with human TREM-1-Ligand (human). The test can be described thus: flow cytometry, double staining with anti CD15, CD15 low neutrophils of a septic patient.
For test [9], the target named is human TREM-1-Ligand (human). Briefly: flow cytometry, double staining with anti CD15, CD15 high neutrophils of a septic patient.
Test [10] addresses human TREM-1-Ligand (human). The test can be described thus: flow cytometry on peripheral neutrophils of a sepsis patient, 0.2 µg huTREM-1/IgM.

Take “murine TREM-1-Receptor/human IgG fusion protein (from UniProt Q9JKE2 21-202) (Fc fusion)”: the frequency of Ly-6G positive, murine TREM-1-Receptor/IgG positive cells in test [1] is 8.8%; in test [2], 35%. Moreover, the frequency of double positive population amounted to 33% in [3], 77% in test [5] and 40% in [6]. Also, in [4], the percent of Ly-6G positive cells positive is 2%.
On to “human TREM-1-Receptor/human IgM fusion protein (from UniProt Q9NP99 21-200)”, for which the percent of cells stained positive in test [7] worked out at 80%; in [10], 45%. Also, the percentage of TREM-1-Ligand expressing cells worked out at 38% in [8] and 2% in [9].
